Several values for one entry are separate records, joined by “and”; a condition that tells them apart may be missing. Equal entries are not always repeated.
Legend:
[1] = tested on: toxic myocarditis caused by Adriamycin in rat; assay: Serum troponin T (cTnT) level, Adriamycin rat model; format: in vivo, SD rat; conditions: Adriamycin model, (I)
Description: 2 ml of arterial blood was withdrawn, serum extracted, frozen and stored at −20° C., determination of serum cTnT content was performed with electrochemistry irradiate method submitted to be carried out by Clinical Laboratory of Zhong Shan Hospital.

[2] = tested on: congestive heart failure caused by inferior vena cava constriction in dog; assay: Hemodynamic index by catheterization, TIVCC dog; format: in vivo, crossbred dog; conditions: for L(−dp/dt) / L(+dp/dt): left ventricle
Description: 7F trifid balloon floating catheter was inserted into the right jugular vein, right auricular pressure, right ventricular pressure, pulmonary pressure and pulmonary wedge pressure were recorded.
6F trifid balloon floating catheter was again inserted into left carotid artery, aorta pressure and left ventricle pressure were recorded with physiology recorder with the following major index: LVPmax, LVPmin, +dp/dt, and −dp/dt.

[3] = tested on: toxic myocarditis caused by Adriamycin in rat; assay: Survival rate, Adriamycin caused toxic myocarditis rat model; format: in vivo, SD rat
Description: rhNRG-1β was injected into the tail vein within 24 hours after the first injection of Adriamycin, the injection of rhNRG-1 β was carried out once daily for 10 days. Dosage was adjusted according to the body weight, volume of the drug administered was 0.2 ml/100 g.
Based on the <<Guidance Principle of New Drug Preclinical Experiment>>, 3.3 mg/kg of Adriamycin was injected into the tail vein, once per week for consecutive 4 injections, establishing Adriamycin caused toxic myocarditis rat model.
rhNRG-1 β was injected into the tail vein within 24 hours after the first injection of Adriamycin. During the experiment, animal survival was dynamically monitored, heart function indexes (maximal rate of pressure increase within left ventricle, […], maximal rate of pressure decrease within left ventricle, −dp/dt, systolic end pressure of left ventricle LVPmax, diastolic end pressure of left ventricle LVPmin) were monitored at the 5th week. Section was made from the heart tissue and pathological changes examined.
Situation of survival was recorded weekly and the survival rate of the various experimental groups was calculated. Survival rate (%)=survival animal number/number of experimental animals×100.

[4] = tested on: toxic myocarditis caused by Adriamycin in rat; assay: Serum troponin T (cTnT) level, Adriamycin rat model; format: in vivo, SD rat
[5] = tested on: acute myocardial injury caused by viral (Coxsackie B3) infection in mice; assay: Serum troponin I (cTnI), mice infected with Coxsackie B3 virus; format: in vivo, BALB/C mice
Description: Severity of myocardial injury was evaluated through determination of the amount of serum cTnI release, with advantage of high specificity and high sensitivity when comparing with other traditional index such as CK, LDH and AST. Therefore, serum cTnI content determination was used as an objective index reflecting the severity of myocardial injury.
At the 8th day of viral injection, body weight of the mice was measured and blood withdrawn from the orbit, serum separated, stored in −20° C. refrigerator and serum cTnI determination with luminous reaction carried out.

[6] = tested on: toxic myocarditis caused by Adriamycin in rat; assay: Heart size (heart weight/body weight, wall thickness), Adriamycin rat model; format: in vivo, SD rat; conditions: Adriamycin model
Description: Heart was extirpated after thoracotomy (auricle should be reserved), the heart weight was measured after dried with absorbent paper, ratio of heart weight/body weight calculated; outer diameter of the heart was measured at ½ site of the vertically standing heart; medium part of the left ventricle was crosswise cut open, maximal thickness of free wall of the left ventricle measured; the heart was fixed with 10% formaldehyde, paraffin embedded and HE stained, observation of the myocardial structure carried out under optic microscope, give out pathologic score.

B1: rhNRG-1 β: Recombinant human neuregulin fragment of 61 amino acid (SEQ ID NO:4), 3 disulfide bonds, expressed in E. coli (protein, listed as Homo sapiens)
chain: SHLVKCAEKEKTFCVNGGECFMVKDLSNPSRYLCKCPNEFTGDRCQNYVMASFYKAEELYQ
modifications: disulfide (positions not given here)
cTnT ([1]; 10 μg/kg iv qd × 10 d): 0.074 ± 0.024 ng/mL
cTnT ([1]; 10 μg/kg iv qd × 10 d, listed as rhNRG-1β): 0.074 ± 0.024 ng/mL
cTnT ([1]; 20 μg/kg iv qd × 10 d): 0.031 ± 0.006 ng/mL
cTnT ([1]; 20 μg/kg iv qd × 10 d, listed as rhNRG-1β): 0.031 ± 0.006 ng/mL
cTnT ([1]; 40 μg/kg iv qd × 10 d): 0.025 ± 0.011 ng/mL
cTnT ([1]; 40 μg/kg iv qd × 10 d, listed as rhNRG-1β): 0.025 ± 0.011 ng/mL
LVPmax ([2]; 1 μg/kg iv daily 5 days): 102.12 ± 12.42 mmHg
LVPmin ([2]; 1 μg/kg iv daily 5 days): 0.59 ± 3.05 mmHg
LVPmax ([2]; 3 μg/kg iv daily 5 days): 114.68 ± 17.12 mmHg
LVPmin ([2]; 3 μg/kg iv daily 5 days): −1.12 ± 1.34 mmHg
LVPmax ([2]; 10 μg/kg iv daily 5 days): 122.87 ± 17.37 mmHg
LVPmin ([2]; 10 μg/kg iv daily 5 days): −0.69 ± 1.05 mmHg
effect on the right ventricle ([2]; 1, 3 and 10 μg/kg iv daily 5 days): not apparent
L(−dp/dt) ([2]; 1 μg/kg iv daily 5 days): −2933 ± 613.44 mmHg/s
L(+dp/dt) ([2]; 3 μg/kg iv daily 5 days): 5000.45 ± 1535.88 mmHg/s
L(−dp/dt) ([2]; 3 μg/kg iv daily 5 days): −3249.52 ± 973.32 mmHg/s
L(+dp/dt) ([2]; 10 μg/kg iv daily 5 days): 5104.88 ± 1332.05 mmHg/s
L(−dp/dt) ([2]; 10 μg/kg iv daily 5 days): −3658.34 ± 1390.97 mmHg/s
survival rate ([3]; Adriamycin 3.3 mg/kg weekly × 4, 10 μg/kg iv qd 10 days): 60%
survival rate ([3]; Adriamycin 3.3 mg/kg weekly × 4, 20 μg/kg iv qd 10 days): 90%
survival rate ([3]; Adriamycin 3.3 mg/kg weekly × 4, 40 μg/kg iv qd 10 days): 85%
cTnI ([4]; 10 μg/kg iv qd × 10 d, (II)): 8.342 ± 13.537 ng/mL
cTnI ([4]; 20 μg/kg iv qd × 10 d, (II)): 1.677 ± 0.589 ng/mL
cTnI ([4]; 40 μg/kg iv qd × 10, (II)): 0.874 ± 0.108 ng/mL
cTnI Mean ± SD ([5]; 7.5 μg/kg iv qd × 5, 8th day, (I)): 29.05 ± 17.06 ng/mL
cTnI Mean ± SD ([5]; 7.5 μg/kg iv qd × 5, 8th day, (I), listed as rhNRG-1β): 29.05 ± 17.06 ng/mL
cTnI Mean ± SD ([5]; 7.5 μg/kg iv qd × 5, 8th day, (II)): 26.85 ± 15.20 ng/mL
cTnI Mean ± SD ([5]; 15 μg/kg iv qd × 5, 8th day, (I)): 19.43 ± 10.76 ng/mL
cTnI Mean ± SD ([5]; 15 μg/kg iv qd × 5, 8th day, (I), listed as rhNRG-1β): 19.43 ± 10.76 ng/mL
cTnI Mean ± SD ([5]; 15 μg/kg iv qd × 5, 8th day, (II)): 15.59 ± 14.94 ng/mL
cTnI Mean ± SD ([5]; 30 μg/kg iv qd × 3, (I)): 13.37 ± 9.53 ng/mL
cTnI Mean ± SD ([5]; 30 μg/kg iv qd × 3, (II)): 12.32 ± 18.36 ng/mL
cTnI Mean ± SD ([5]; 30 μg/kg iv qd × 5, 8th day, (I)): 7.98 ± 6.07 ng/mL
cTnI Mean ± SD ([5]; 30 μg/kg iv qd × 5, 8th day, (I), listed as rhNRG-1β): 7.98 ± 6.07 ng/mL
cTnI Mean ± SD ([5]; 30 μg/kg iv qd × 5, 8th day, (II)): 0.54 ± 0.53 ng/mL
cTnI Mean ± SD ([5]; 30 μg/kg iv qd × 5, Example 5 (I)): 1.06 ± 1.32 ng/mL
cTnI Mean ± SD ([5]; 30 μg/kg iv qd × 5, Example 5 (I), listed as rhNRG-1β): 1.06 ± 1.32 ng/mL
cTnI Mean ± SD ([5]; 30 μg/kg iv qd × 5, Example 5 (II)): 0.44 ± 0.24 ng/mL
cTnI Mean ± SD ([5]; 30 μg/kg iv qd × 7, (I)): 1.05 ± 1.2 ng/mL and 1.05 ± 1.20 ng/mL
cTnI Mean ± SD ([5]; 30 μg/kg iv qd × 7, (I), listed as rhNRG-1β): 1.05 ± 1.20 ng/mL
cTnI Mean ± SD ([5]; 30 μg/kg iv qd × 7, (II)): 0.51 ± 0.28 ng/mL
Heart weight/body weight ([6]; 10 μg/kg iv qd × 10 d, (I)): 0.00301 ± 0.0002
Left ventricle wall thickness ([6]; 10 μg/kg iv qd × 10 d, (I)): 1.773 ± 0.115 mm
Heart weight/body weight ([6]; 10 μg/kg iv qd × 10 d, (II)): 0.00307 ± 0.000
Left ventricular wall thickness ([6]; 10 μg/kg iv qd × 10 d, (II)): 2.18 ± 0.21 mm
Heart weight/body weight ([6]; 20 μg/kg iv qd × 10 d, (I)): 0.0032 ± 0.0001
Left ventricle wall thickness ([6]; 20 μg/kg iv qd × 10 d, (I)): 1.789 ± 0.133 mm
Heart weight/body weight ([6]; 20 μg/kg iv qd × 10 d, (II)): 0.00303 ± 0.000
Left ventricular wall thickness ([6]; 20 μg/kg iv qd × 10 d, (II)): 2.15 ± 0.24 mm
Heart weight/body weight ([6]; 40 μg/kg iv qd × 10, (II)): 0.00297 ± 0.000
Left ventricular wall thickness ([6]; 40 μg/kg iv qd × 10, (II)): 2.06 ± 0.2 mm
Heart weight/body weight ([6]; 40 μg/kg iv qd × 10 d, (I)): 0.0031 ± 0.0002
Left ventricle wall thickness ([6]; 40 μg/kg iv qd × 10 d, (I)): 1.813 ± 0.12 mm

From patent US9555076B2, “Neuregulin based methods and compositions for treating cardiovascular diseases” (Zensun (Shanghai) Science & Technology, Co., Ltd., priority 2002, dated 2017)
